This is an account of results in patent US20190338048A1.

Assay [1] deals with CR8071 lambda light chain L1 with E124R (SMCA design 2826). The assay is described as follows: SMCA: four chains co-expressed, protein A, LC-MS.
Assay [2] shares this target. Kind of assay: SMCA LC-MS.
The target in assay [3] is CR8071 lambda light chain L1 with Q38E (SMCA design 34). Kind of assay: SMCA: four chains co-expressed, protein A, LC-MS.
Assay [4] has the same target. The assay is described as follows: SMCA LC-MS.
Assay [5] concerns the target CR8071 lambda light chain L1, design 2188 (V133G_S176R). The assay is described as follows: SMCA, System C.
The target is the same in assay [6]. The assay is described as follows: SMCA, System C, LC-MS.
Assay [7] concerns the target Design 2994 L1: CR8071 lambda light chain E124Q_T131K. The assay is described as follows: SMCA: H1, L1, H2, L2 co-expressed in CHO-3E7, protein A, LC-MS.
For assay [8] the target is unchanged. Kind of assay: SMCA, LC-MS.
In assay [9] the target is Design 2994 L2: SGN-CD19a kappa light chain Q124E_V133D. The assay is described as follows: SMCA: H1, L1, H2, L2 co-expressed in CHO-3E7, protein A, LC-MS.
The target is the same in assay [10]. The assay is described as follows: SMCA, LC-MS.
Assay [11] has as its target Design 3954 L2: SGN-CD19a kappa light chain S121K_S176E_T178E. Kind of assay: SMCA: H1, L1, H2, L2 co-expressed, protein A, LC-MS.
Assay [12] has the same target. The description is as above. This is another data set of the same source.
Assay [13] has the same target. The description is as above. This is another data set of the same source.
The target in assay [14] is Design 3997 L1: CR8071 lambda light chain S122D_E124Q_T131R. The assay is described as follows: SMCA: H1, L1, H2, L2 co-expressed in CHO-3E7, protein A, LC-MS.
Assay [15] shares this target. The assay is described as follows: SMCA, LC-MS.
Assay [16] deals with Design 3997 L2: SGN-CD19a kappa light chain S121K_V133I_S176D_T178E. Kind of assay: SMCA: H1, L1, H2, L2 co-expressed in CHO-3E7, protein A, LC-MS.
The target is the same in assay [17]. The assay is described as follows: SMCA, LC-MS.
Assay [18] addresses Design 4008 L2: SGN-CD19a kappa light chain Q124R_L135W_T178R. The assay is described as follows: SMCA, LC-MS.
Assay [19] addresses Design 4010 L2: SGN-CD19a kappa light chain S131R_V133G_L135W_S176R. The assay is described as follows: SMCA, LC-MS.
For assay [20], the target named is Design 4040 L1: CR8071 lambda light chain K129T_S180E. The assay is described as follows: SMCA: H1, L1, H2, L2 co-expressed in CHO-3E7, protein A, LC-MS.
The target is the same in assay [21]. The assay is described as follows: SMCA, LC-MS.
The target of assay [22] is Design 4040 L2: SGN-CD19a kappa light chain P44F_Q124K_T178R. Kind of assay: SMCA, LC-MS.
The target is the same in assay [23]. Kind of assay: SMCA: H1, L1, H2, L2 co-expressed in CHO-3E7, protein A, LC-MS.
Assay [24] shares this target. Kind of assay: SMCA, LC-MS. The source holds these as a separate data set.
Assay [25] deals with Design 4320 L1: CR8071 lambda light chain T116F_K129T_V133D_S176F. Kind of assay: SMCA: H1, L1, H2, L2 co-expressed in CHO-3E7, protein A, LC-MS.
The target is the same in assay [26]. The assay is described as follows: SMCA, LC-MS.
The target in assay [27] is Design 4320 L2: SGN-CD19a kappa light chain Q124K_L135A_T178R. The assay is described as follows: SMCA, LC-MS.
Assay [28] concerns the target Designs 4008 and 4010 L1: CR8071 lambda light chain K129T_V133D. Kind of assay: SMCA: H1, L1, H2, L2 co-expressed in CHO-3E7, protein A, LC-MS.
Assay [29] has the same target. Kind of assay: SMCA, LC-MS.
Assay [30] has as its target SGN-CD19a kappa light chain L2 with V133G_S176D (SMCA design 2188). Kind of assay: SMCA: four chains co-expressed, protein A, LC-MS.
Assay [31] shares this target. The assay is described as follows: SMCA LC-MS.
Assay [32] has as its target SGN-CD19a kappa light chain L2 with Q124E_Q160E_T180E (SMCA design 2826). The assay is described as follows: SMCA: four chains co-expressed, protein A, LC-MS.
The target is the same in assay [33]. Kind of assay: SMCA: four chains co-expressed, protein A, LC-MS. The source holds these as a separate data set.
For assay [34] the target is unchanged. Kind of assay: SMCA LC-MS.
For assay [35] the target is unchanged. The assay is described as follows: SMCA LC-MS. The source holds these as a separate data set.
Assay [36] concerns the target SGN-CD19a kappa light chain L2 S121K_Q124R_T178R (design 3967, Systems B and C). Kind of assay: SMCA: H1, L1, H2, L2 co-expressed, protein A, LC-MS.
Assay [37] shares this target. Described as above. The source holds these as a separate data set.
For assay [38] the target is unchanged. The description is as above. This is another data set of the same source.
Assay [39] deals with SGN-CD19a kappa light chain L2, design 2188 (V133G_S176D). Kind of assay: SMCA, System C.
Assay [40] shares this target. Kind of assay: SMCA, System C, LC-MS.

Values joined by “and” are separate entries in the source; they are usually repeats but may differ in a detail not shown here. Equal entries are not always repeated. Where two headings read alike, the source gives them in different places.

In assay [1], “CR8071 full-length heavy chain H1 with L143E_K145T (SMCA design 2826)” displayed a % H1L1 Pairing of 27.8%. Further, the Change in % H1L1 Pairing with respect to wild type in [2] was -40.3%.

With “CR8071 full-length heavy chain H1 with Q39R (SMCA design 34)”, the % H1L1 Pairing in [3] turned out to be 92.6%. In addition, in assay [4], the Change in % H1L1 Pairing with respect to wild type stood at 24.5%.

The substance “CR8071 heavy chain H1, design 2188 (L124E)” had a % H1L1 Pairing in [5] of 24.9%. Besides, the Change in % H1L1 Pairing with respect to wild type in assay [6] is -23.5%.

As for “Design 2994 H1: CR8071 heavy chain L143E_K145T_Q179E”, in [7], the % H1L1 Pairing was determined as 26.3%. For the same substance, the Change in % H1L1 Pairing with respect to wild type in [8] was -22.1%.

On to “Design 2994 H2: SGN-CD19a heavy chain L143K”, for which, in assay [9], the % H2L2 Pairing is 99.2% and 99.7%. The Change in % H2L2 Pairing with respect to wild type in assay [10] is 45% and 20.1%.

Regarding “Design 3954 H2: SGN-CD19a heavy chain S188K_K228D”, the % H2L2 Pairing in assay [11] is 98.7%; in assay [13], 61.8%. For the same substance, the Change in % H2L2 Pairing with respect to wild type in assay [11] was determined as 19.1%; in assay [12], 7.6%.

Take “Design 3997 H1: CR8071 heavy chain A125R_L143E_K145T_Q179E”: the % H1L1 Pairing in [14] came out at 96%. The Change in % H1L1 Pairing with respect to wild type in [15] worked out at 27.9%.

As to “Design 3997 H2: SGN-CD19a heavy chain S188K_K228D”, the % H2L2 Pairing in assay [16] turned out to be 99.9%. In [17], this substance returned a Change in % H2L2 Pairing with respect to wild type of 28.6%.

In the case of “Design 4008 H2: SGN-CD19a heavy chain L143E_K145T_Q179E”, the Change in % H2L2 Pairing with respect to wild type in [18] is 33.3% and 38.4%.

Take “Design 4010 H2: SGN-CD19a heavy chain L124E_K145T_Q179E”: the Change in % H2L2 Pairing with respect to wild type in [19] was 33.9% and 38.7%.

In assay [20], “Design 4040 H1: CR8071 heavy chain S186R” showed a % H1L1 Pairing of 98.7%. The Change in % H1L1 Pairing with respect to wild type in assay [21] was 30.6%.

As to “Design 4040 H2: SGN-CD19a heavy chain L45P_L143E_K145T_Q179E”, the values for the Change in % H2L2 Pairing with respect to wild type in [22] and in assay [24] were 21.6% and 27.3%, respectively. Besides, the % H2L2 Pairing in assay [23] is 75.8% and 98.6%.

The substance “Design 4320 H1: CR8071 heavy chain L143K_F174G” displayed a % H1L1 Pairing in assay [25] of 96.6%. Besides, in assay [26], the Change in % H1L1 Pairing with respect to wild type was found to be 14.3%.

Turning to “Design 4320 H2: SGN-CD19a heavy chain L143E_K145T_Q179E_V190F”, the Change in % H2L2 Pairing with respect to wild type in [27] is 17.9% and 21.5%.

In the case of “Designs 4008 and 4010 H1: CR8071 heavy chain A139W_L143K”, in assay [28], the % H1L1 Pairing is 99.6% and 99.3%. Moreover, the Change in % H1L1 Pairing with respect to wild type in assay [29] was 17.3% and 17%.

Turning to “SGN-CD19a full-length heavy chain H2 with L124R (SMCA design 2188)”, in [30], the % H2L2 Pairing was found to be 92.9%. In [31], this substance had a Change in % H2L2 Pairing with respect to wild type of 38.7%.

Consider “SGN-CD19a full-length heavy chain H2 with Q179K (SMCA design 2826)”, for which the % H2L2 Pairing in assay [32] was found to be 98%; in [33], 89.7%. Also, the Change in % H2L2 Pairing with respect to wild type was determined as 35.5% in assay [34] and 26.7% in assay [35].

“SGN-CD19a heavy chain H2 L143E_K145T_Q179E_K228D (design 3967, Systems B and C)”: the % H2L2 Pairing was found to be 100% in assay [36] and 98.6% in assay [37]. Further, the Change in % H2L2 Pairing with respect to wild type in assay [36] is 28.7%; in assay [38], 44.4%.

“SGN-CD19a heavy chain H2, design 2188 (L124R)” showed a % H2L2 Pairing in [39] of 99.5%. The Change in % H2L2 Pairing with respect to wild type in assay [40] amounted to 19.9%.
